In patent publication US9017951B2, “Anti-FcRH5 antibodies and immunoconjugates and methods of use” (Genentech, Inc., priority 2009, dated 2015):

T1: human FcRH5 (Homo sapiens, UniProt Q96RD9)
T1 construct: expressed in transfected cells; host or cells: OPM2 multiple myeloma line per text
T1 sequence (Q96RD9 16-977 Y267H/G418D/V466I/L733P/S890P): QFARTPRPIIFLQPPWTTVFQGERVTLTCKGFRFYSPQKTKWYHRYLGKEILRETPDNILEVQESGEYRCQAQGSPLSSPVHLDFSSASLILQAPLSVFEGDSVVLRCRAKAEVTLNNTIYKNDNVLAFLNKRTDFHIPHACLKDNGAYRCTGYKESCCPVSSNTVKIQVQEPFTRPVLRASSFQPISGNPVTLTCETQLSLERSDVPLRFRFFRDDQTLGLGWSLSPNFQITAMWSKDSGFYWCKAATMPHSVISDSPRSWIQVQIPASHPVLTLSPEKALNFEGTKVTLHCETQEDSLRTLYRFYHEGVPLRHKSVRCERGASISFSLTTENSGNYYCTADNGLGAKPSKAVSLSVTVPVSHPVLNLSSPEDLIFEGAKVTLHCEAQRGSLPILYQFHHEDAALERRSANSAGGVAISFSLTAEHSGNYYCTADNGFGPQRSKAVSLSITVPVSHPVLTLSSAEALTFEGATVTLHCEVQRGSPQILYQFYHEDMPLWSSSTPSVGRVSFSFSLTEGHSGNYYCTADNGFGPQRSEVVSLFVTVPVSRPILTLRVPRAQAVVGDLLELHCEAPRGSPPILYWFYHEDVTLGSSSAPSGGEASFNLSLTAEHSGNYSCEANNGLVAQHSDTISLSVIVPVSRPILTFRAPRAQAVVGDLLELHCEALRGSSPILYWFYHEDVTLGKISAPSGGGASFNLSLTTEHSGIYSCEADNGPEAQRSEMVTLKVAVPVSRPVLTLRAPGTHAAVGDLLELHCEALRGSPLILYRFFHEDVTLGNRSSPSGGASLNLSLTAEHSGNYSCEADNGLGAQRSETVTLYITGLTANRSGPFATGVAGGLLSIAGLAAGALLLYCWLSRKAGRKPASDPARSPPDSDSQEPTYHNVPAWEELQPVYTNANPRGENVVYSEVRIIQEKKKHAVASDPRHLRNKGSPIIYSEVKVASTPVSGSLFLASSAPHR


What was measured:
cynomolgus FcRH5 = assay: Cyno X-reactivity (FACS) on stable transfected cells; type: binding; conditions: SVT2 cells stably expressing cynoFcRH5; 1.0, 0.1 or 0.01 ug Ab per million cells
Description: For additional FACS analysis of FcRH5 antibodies, 1.0 μg, 0.1 μg or 0.01 μg of antibody was titrated per million cells of BJAB cells stably expressing huFcRH5 and SVT2 cells stably expressing cynoFcRH5. Briefly, approximately 10^6 cells in 100 μl were incubated with varying amounts (1.0 ug, 01. ug or 0.01 ug) of murine Ab (‘mu1H4, mu4D10, mu6H1, mu7D11, mu9E2, mu10A8, mu140F5, or mu13G9) per million cells of BJAB cells stably expressing huFcRH5 and SVT2 cells stably expressing cynoFcRH5. Incubation with 1.0 ug/10^6 cells of the appropriate Mu IgG isotype control was used as a negative control. PE conjugated Rat anti-MuIgG1 or Rat anti-MuIgG2a+b was used as the secondary detection antibody.

human FcRH5 = molecular target: T1, human FcRH5; assay: Affinity determination (Scatchard analysis), cells expressing human FcRH5; type: binding; conditions: FACS and Scatchard analysis
Description: To further determine binding of the FcRH5 murine antibodies and IgG clones, binding of iodinated IgG variants to OPM2 cells expressing human FcRH5 and SVT2 cells expressing cynomologous FcRH5, Scatchard analysis was performed (Table 9A).
After a four hour incubation at 4° C., cells were washed and cell pellet counts were read by a gamma counter (1470 WIZARD Automatic Gamma Counter; Perkin Elmer, Walthem, Mass.). All points were done in triplicate and counted for 10 minutes. The average CPM was used for Kd calculation using the New Ligand (Genentech, South San Francisco, Calif.) program.

Sequence of cynomolgus FcRH5 (as listed by the source): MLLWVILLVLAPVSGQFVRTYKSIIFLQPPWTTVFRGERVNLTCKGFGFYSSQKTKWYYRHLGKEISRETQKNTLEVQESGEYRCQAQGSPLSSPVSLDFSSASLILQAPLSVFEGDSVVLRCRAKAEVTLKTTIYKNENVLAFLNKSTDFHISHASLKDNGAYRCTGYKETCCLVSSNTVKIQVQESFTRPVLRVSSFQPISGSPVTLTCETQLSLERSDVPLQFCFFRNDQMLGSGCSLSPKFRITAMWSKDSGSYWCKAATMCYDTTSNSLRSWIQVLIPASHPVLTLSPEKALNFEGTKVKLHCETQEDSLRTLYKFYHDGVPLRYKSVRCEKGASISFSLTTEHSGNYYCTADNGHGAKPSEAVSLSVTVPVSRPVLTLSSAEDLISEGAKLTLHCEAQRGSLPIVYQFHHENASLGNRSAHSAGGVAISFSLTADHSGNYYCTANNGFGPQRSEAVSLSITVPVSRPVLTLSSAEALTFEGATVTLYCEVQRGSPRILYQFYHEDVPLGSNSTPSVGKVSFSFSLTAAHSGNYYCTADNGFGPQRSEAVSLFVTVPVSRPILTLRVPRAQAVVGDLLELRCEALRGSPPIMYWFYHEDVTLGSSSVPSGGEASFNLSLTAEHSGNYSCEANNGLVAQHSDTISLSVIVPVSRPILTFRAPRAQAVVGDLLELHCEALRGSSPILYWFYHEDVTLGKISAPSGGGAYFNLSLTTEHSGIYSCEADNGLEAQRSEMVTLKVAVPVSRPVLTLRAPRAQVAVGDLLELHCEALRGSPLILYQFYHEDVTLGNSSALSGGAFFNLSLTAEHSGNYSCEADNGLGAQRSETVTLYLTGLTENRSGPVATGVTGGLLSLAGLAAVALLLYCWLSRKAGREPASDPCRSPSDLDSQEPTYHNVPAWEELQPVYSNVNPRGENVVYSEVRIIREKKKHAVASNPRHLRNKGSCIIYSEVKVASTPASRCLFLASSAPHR

Row | Binding to cells expressing FcRH5 compared with the chimera (human FcRH5) | Molecule | Cross reactivity with cynomolgus FcRH5 by FACS analysis (cynomolgus FcRH5)
1 |  | 13G9: murine monoclonal antibody binding human FcRH5; variable chains SEQ ID NO: 18 and 20 (antibody, listed as Mus sp., V domains shown) VL: DIVMTQSQKIMSTSVGDRVNVTCKASQNVGSNVAWYHQKPGQSPKALIYSASYRYSGVPDRFTGSGSGTDFTLTISNVQSEDLAEYFCQQYKTWTFGGGTKLEIKR VH: EVQLVQSGPELKKPGETVKISCKASGYTFTNYGMNWVKQAPGKGLKWMGWVNTYTGEPTYTDDFKGRFAFSVETSASTVFLQINNLKNEDTATYFCARRSIPYYYAMDYWGQGTSLT | cross react with cynomolgus FcRH5
2 | essentially equivalent to the chimera | hu13G9.1a: humanized 13G9 version 1; VL SEQ ID NO: 19, VH SEQ ID NO: 21 (antibody, V domains shown) VH: EVQLVQSGGGLVQPGGSLRLSCAASGYTFTNYGMNWVRQAPGKGLEWVGWVNTYTGEPTYTDDFKGRFTFSVDTSKSTVYLQMNSLRAEDTAVYYCARRSIPYYYAMDYWGQGTLVTVS VL: DIQMTQSPSSLSASVGDRVTITCKASQNVGSNVAWYQQKPGKAPKALIYSASYRYSGVPSRFSGSGSGTDFTLTISSLQPEDFATYYCQQYKTWTFGQGTKVEIKR | 
